Consider 29 molecules from US20210395381A1 (OSSIANIX, published 2021).

One test has as its target T1, recombinant human TfR-1 (human, UniProt P02786 89-760).
T1 construct: Recombinant protein coated at 1 ug/ml in the phage ELISA; also called hTfR1; human transferrin receptor-1
Put plainly: phage ELISA. On the technique in general: In an ELISA, binding on a coated surface is turned into a signal by an enzyme label.

Another test addresses T2, recombinant mouse TfR-1 (mouse, UniProt Q62351 89-763).
T2 construct: Recombinant protein coated at 1 ug/ml in the phage ELISA; also called mTfR1; mouse transferrin receptor-1
Put plainly: phage ELISA.

T1 sequence (P02786 89-760 limits assumed): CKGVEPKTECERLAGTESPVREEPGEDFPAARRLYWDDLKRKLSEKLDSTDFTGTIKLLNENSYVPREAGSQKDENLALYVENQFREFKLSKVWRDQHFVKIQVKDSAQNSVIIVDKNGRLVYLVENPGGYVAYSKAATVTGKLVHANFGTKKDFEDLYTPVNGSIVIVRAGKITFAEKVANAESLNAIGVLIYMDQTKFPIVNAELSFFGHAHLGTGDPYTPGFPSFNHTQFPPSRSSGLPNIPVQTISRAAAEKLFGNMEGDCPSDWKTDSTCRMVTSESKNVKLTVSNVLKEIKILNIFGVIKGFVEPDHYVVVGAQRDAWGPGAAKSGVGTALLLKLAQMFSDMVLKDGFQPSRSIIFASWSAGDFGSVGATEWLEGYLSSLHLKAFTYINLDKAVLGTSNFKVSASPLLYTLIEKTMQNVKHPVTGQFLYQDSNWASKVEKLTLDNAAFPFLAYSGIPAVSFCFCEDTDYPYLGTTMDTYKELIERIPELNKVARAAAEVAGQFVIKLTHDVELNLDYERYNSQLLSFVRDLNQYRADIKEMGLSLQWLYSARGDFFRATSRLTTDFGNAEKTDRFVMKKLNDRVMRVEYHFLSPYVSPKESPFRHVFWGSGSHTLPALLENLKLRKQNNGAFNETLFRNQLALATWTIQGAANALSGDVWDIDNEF
T2 sequence (Q62351 89-763 limits assumed): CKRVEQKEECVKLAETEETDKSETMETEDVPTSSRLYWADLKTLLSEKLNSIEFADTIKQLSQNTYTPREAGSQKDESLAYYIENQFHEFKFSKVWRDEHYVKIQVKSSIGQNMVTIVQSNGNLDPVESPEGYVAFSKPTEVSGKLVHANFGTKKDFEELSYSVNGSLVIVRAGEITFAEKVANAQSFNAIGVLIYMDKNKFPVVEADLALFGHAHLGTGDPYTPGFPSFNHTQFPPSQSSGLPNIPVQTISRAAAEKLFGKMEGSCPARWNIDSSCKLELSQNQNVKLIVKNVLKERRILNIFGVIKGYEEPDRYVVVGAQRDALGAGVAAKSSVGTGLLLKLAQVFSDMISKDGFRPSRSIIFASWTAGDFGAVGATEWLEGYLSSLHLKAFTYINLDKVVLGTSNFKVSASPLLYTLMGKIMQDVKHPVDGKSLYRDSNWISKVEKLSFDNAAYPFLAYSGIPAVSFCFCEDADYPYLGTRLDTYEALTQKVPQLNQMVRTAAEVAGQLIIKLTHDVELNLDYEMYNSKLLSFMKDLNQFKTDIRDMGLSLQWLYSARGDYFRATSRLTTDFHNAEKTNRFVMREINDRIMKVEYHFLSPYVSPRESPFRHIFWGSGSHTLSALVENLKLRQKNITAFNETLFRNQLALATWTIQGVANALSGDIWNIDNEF

B1: Clone 8.18 (VNAR)
VNAR: ARVDQTPQTITKETGESLTINCVLRDSNCALPSTYWYRKKSGSTNEESISKGGRYVETVNSGSKSFSLRINDLTVEDSGTYRCKVIAQLSSKYVGCNYRKHDVYGDGTAVTVNA
notes: VNAR on phage; Clone 8 framework
As for B1, the A450 with recombinant human TfR-1 stood at 0.06 A450; in the test with recombinant mouse TfR-1, 0.09 A450.

B2: Clone 8.46 (VNAR)
VNAR: ARVDQTPQTITKETGESLTINCVLRDSNCALPSTYWYRKKSGSTNEESISKGGRYVETVNSGSKSFSLRINDLTVEDSGTYRCKVIAQLSSYVVGCNYRKHDVYGDGTAVTVNA
notes: as for B1
On to B2, for which the A450 with recombinant human TfR-1 was determined as 0.056 A450; with recombinant mouse TfR-1 it was 0.067 A450.

B3: Clone 8.37 (VNAR)
VNAR: ARVDQTPQTITKETGESLTINCVLRDSNCALPSTYWYRKKSGSTNEESISKGGRYVETVNSGSKSFSLRINDLTVEDSGTYRCKVIAQLSSQRWGCNYRKHDVYGDGTAVTVNA
notes: as for B1
Turning to B3, the figures for the A450 with recombinant human TfR-1 and with recombinant mouse TfR-1 were 0.069 A450 and 0.071 A450, respectively.

B4: Clone 8.43 (VNAR)
VNAR: ARVDQTPQTITKETGESLTINCVLRDSNCALPSTYWYRKKSGSTNEESISKGGRYVETVNSGSKSFSLRINDLTVEDSGTYRCKVIAQLSSILKPCWYRKHDVYGDGTAVTVNA
notes: as for B1
On to B4, for which the A450 is 0.093 A450 in the test with recombinant human TfR-1 and 0.067 A450 with recombinant mouse TfR-1.

B5: Clone 8.29 (VNAR)
VNAR: ARVDQTPQTITKETGESLTINCVLRDSNCALPSTYWYRKKSGSTNEESISKGGRYVETVNSGSKSFSLRINDLTVEDSGTYRCKVIAQLSSILLTCEYRKHDVYGDGTAVTVNA
notes: as for B1
Regarding B5, the A450 with recombinant human TfR-1 was determined as 0.059 A450; with recombinant mouse TfR-1, 0.077 A450.

B6: Clone 8.45 (VNAR)
VNAR: ARVDQTPQTITKETGESLTINCVLRDSNCALPSTYWYRKKSGSTNEESISKGGRYVETVNSGSKSFSLRINDLTVEDSGTYRCKVIAQLSSILRGCNYNMEDVYGDGTAVTVNA
notes: as for B1
In the case of B6, the figures for the A450 with recombinant human TfR-1 and with recombinant mouse TfR-1 were 0.06 A450 and 0.067 A450, respectively.

B7: Clone 8.44 (VNAR)
VNAR: ARVDQTPQTITKETGESLTINCVLRDSNCALPSTYWYRKKSGSTNEESISKGGRYVETVNSGSKSFSLRINDLTVEDSGTYRCKVIAQLSSILRGCNYLSMDVYGDGTAVTVNA
notes: as for B1
For B7, the A450 with recombinant human TfR-1 is 0.056 A450; with recombinant mouse TfR-1, 0.067 A450.

B8: Clone 8.33 (VNAR)
VNAR: ARVDQTPQTITKETGESLTINCVLRDSNCALPSTYWYRKKSGSTNEESISKGGRYVETVNSGSKSFSLRINDLTVEDSGTYRCKVRDALSSILRGCNYRKHDVYGDGTAVTVNA
notes: as for B1
B8: the A450 with recombinant human TfR-1 is 0.09 A450; with recombinant mouse TfR-1, 0.073 A450.

B9: Clone 8.36 (VNAR)
VNAR: ARVDQTPQTITKETGESLTINCVLRDSNCALPSTYWYRKKSGSTNEESISKGGRYVETVNSGSKSFSLRINDLTVEDSGTYRCKVIAQLSSILRGCNYWRWDVYGDGTAVTVNA
notes: as for B1
For the molecule B9, the A450 with recombinant human TfR-1 came out at 0.058 A450; with recombinant mouse TfR-1, 0.071 A450.

B10: Clone 8.23 (VNAR)
VNAR: ARVDQTPQTITKETGESLTINCVLRDSNCALPSTYWYRKKSGSTNEESISKGGRYVETVNSGSKSFSLRINDLTVEDSGTYRCKVIAQLPKQLRGCNYRKHDVYGDGTAVTVNA
notes: as for B1
In the case of B10, the results for the A450 with recombinant human TfR-1 and with recombinant mouse TfR-1 were 0.055 A450 and 0.085 A450, respectively.

B11: Clone 8.34 (VNAR)
VNAR: ARVDQTPQTITKETGESLTINCVLRDSNCALPSTYWYRKKSGSTNEESISKGGRYVETVNSGSKSFSLRINDLTVEDSGTYRCKVIAQLSSILRGCNYIAYDVYGDGTAVTVNA
notes: as for B1
For B11, the A450 in the test with recombinant human TfR-1 stood at 0.078 A450; with recombinant mouse TfR-1, 0.072 A450.

B12: Clone 8.26 (VNAR)
VNAR: ARVDQTPQTITKETGESLTINCVLRDSNCALPSTYWYRKKSGSTNEESISKGGRYVETVNSGSKSFSLRINDLTVEDSGTYRCKVIASAFSILRGCNYRKHDVYGDGTAVTVNA
notes: as for B1
Take B12: the results for the A450 with recombinant human TfR-1 and in the test with recombinant mouse TfR-1 were 0.087 A450 and 0.082 A450, respectively.

B13: Clone 8.41 (VNAR)
VNAR: ARVDQTPQTITKETGESLTINCVLRDSNCALPSTYWYRKKSGSTNEESISKGGRYVETVNSGSKSFSLRINDLTVEDSGTYRCKVIAPQKSILRGCNYHKIDVYGDGTAVTVNA
notes: as for B1
Take B13: the figures for the A450 with recombinant human TfR-1 and with recombinant mouse TfR-1 were 0.072 A450 and 0.068 A450, respectively.

B14: Clone 8.38 (VNAR)
VNAR: ARVDQTPQTITKETGESLTINCVLRDSNCALPSTYWYRKKSGSTNEESISKGGRYVETVNSGSKSFSLRINDLTVEDSGTYRCKVIAQLVLNLRGCNYRKHDVYGDGTAVTVNA
notes: as for B1
For the molecule B14, the results for the A450 with recombinant human TfR-1 and with recombinant mouse TfR-1 were 0.075 A450 and 0.071 A450, respectively.

B15: Clone 8.32 (VNAR)
VNAR: ARVDQTPQTITKETGESLTINCVLRDSNCALPSTYWYRKKSGSTNEESISKGGRYVETVNSGSKSFSLRINDLTVEDSGTYRCKVIAQLSSIWKGCKYRKHDVYGDGTAVTVNA
notes: as for B1
In the case of B15, the A450 with recombinant human TfR-1 amounted to 0.065 A450; with recombinant mouse TfR-1 it was 0.074 A450.

B16: Clone 8.24 (VNAR)
VNAR: ARVDQTPQTITKETGESLTINCVLRDSNCALPSTYWYRKKSGSTNEESISKGGRYVETVNSGSKSFSLRINDLTVEDSGTYRCKVIAQLSSILRGCNYFFPDVYGDGTAVTVNA
notes: as for B1
Consider B16, for which the A450 with recombinant human TfR-1 was 0.093 A450; with recombinant mouse TfR-1, 0.084 A450.

B17: Clone 8.35 (VNAR)
VNAR: ARVDQTPQTITKETGESLTINCVLRDSNCALPSTYWYRKKSGSTNEESISKGGRYVETVNSGSKSFSLRINDLTVEDSGTYRCKVIAELFSILRGCNYRKHDVYGDGTAVTVNA
notes: as for B1
On to B17, for which the A450 in the test with recombinant human TfR-1 came out at 0.078 A450; with recombinant mouse TfR-1, 0.071 A450.

B18: Clone 8.40 (VNAR)
VNAR: ARVDQTPQTITKETGESLTINCVLRDSNCALPSTYWYRKKSGSTNEESISKGGRYVETVNSGSKSFSLRINDLTVEDSGTYRCKVIAQLYVGLRGCNYRKHDVYGDGTAVTVNA
notes: as for B1
With B18, the A450 with recombinant human TfR-1 came to 0.066 A450; with recombinant mouse TfR-1, 0.07 A450.

B19: Clone 8.25 (VNAR)
VNAR: ARVDQTPQTITKETGESLTINCVLRDSNCALPSTYWYRKKSGSTNEESISKGGRYVETVNSGSKSFSLRINDLTVEDSGTYRCKVIAQLSSMELGCNYRKHDVYGDGTAVTVNA
notes: as for B1
Regarding B19, the results for the A450 in the test with recombinant human TfR-1 and with recombinant mouse TfR-1 were 0.06 A450 and 0.084 A450, respectively.

B20: Clone 8.20 (VNAR)
VNAR: ARVDQTPQTITKETGESLTINCVLRDSNCALPSTYWYRKKSGSTNEESISKGGRYVETVNSGSKSFSLRINDLTVEDSGTYRCKVIAQLSSILRGCLDKKHDVYGDGTAVTVNA
notes: as for B1
In the case of B20, the A450 with recombinant human TfR-1 stood at 0.084 A450; in the test with recombinant mouse TfR-1, 0.087 A450.

B21: Clone 8.39 (VNAR)
VNAR: ARVDQTPQTITKETGESLTINCVLRDSNCALPSTYWYRKKSGSTNEESISKGGRYVETVNSGSKSFSLRINDLTVEDSGTYRCKVIAQLSSILDDCEYRKHDVYGDGTAVTVNA
notes: as for B1
With B21, the A450 in the test with recombinant human TfR-1 stood at 0.063 A450; with recombinant mouse TfR-1, 0.07 A450.

B22: Clone 8.42 (VNAR)
VNAR: ARVDQTPQTITKETGESLTINCVLRDSNCALPSTYWYRKKSGSTNEESISKGGRYVETVNSGSKSFSLRINDLTVEDSGTYRCKVIAQLFIDLRGCNYRKHDVYGDGTAVTVNA
notes: as for B1
For the molecule B22, the A450 was found to be 0.062 A450 in the test with recombinant human TfR-1 and 0.068 A450 with recombinant mouse TfR-1.

B23: Clone 8.27 (VNAR)
VNAR: ARVDQTPQTITKETGESLTINCVLRDSNCALPSTYWYRKKSGSTNEESISKGGRYVETVNSGSKSFSLRINDLTVEDSGTYRCKVQGMLSSILRGCNYRKHDVYGDGTAVTVNA
notes: as for B1
With B23, the A450 came to 0.079 A450 with recombinant human TfR-1 and 0.08 A450 in the test with recombinant mouse TfR-1.

B24: Clone 8.28 (VNAR)
VNAR: ARVDQTPQTITKETGESLTINCVLRDSNCALPSTYWYRKKSGSTNEESISKGGRYVETVNSGSKSFSLRINDLTVEDSGTYRCKVAFILSSILRGCNYRKHDVYGDGTAVTVNA
notes: as for B1
For B24, the values for the A450 in the test with recombinant human TfR-1 and in the test with recombinant mouse TfR-1 were 0.085 A450 and 0.077 A450, respectively.

B25: Clone 8.31 (VNAR)
VNAR: ARVDQTPQTITKETGESLTINCVLRDSNCALPSTYWYRKKSGSTNEESISKGGRYVETVNSGSKSFSLRINDLTVEDSGTYRCKVIAQLISILRGCNKNKHDVYGDGTAVTVNA
notes: as for B1
As for B25, the results for the A450 with recombinant human TfR-1 and with recombinant mouse TfR-1 were 0.077 A450 and 0.075 A450, respectively.

B26: Clone 8.22 (VNAR)
VNAR: ARVDQTPQTITKETGESLTINCVLRDSNCALPSTYWYRKKSGSTNEESISKGGRYVETVNSGSKSFSLRINDLTVEDSGTYRCKVIAQQKSILRGCNYHKHDVYGDGTAVTVNA
notes: as for B1
B26: the A450 with recombinant human TfR-1 turned out to be 0.066 A450; in the test with recombinant mouse TfR-1 it was 0.086 A450.

B27: Clone 8.30 (VNAR)
VNAR: ARVDQTPQTITKETGESLTINCVLRDSNCALPSTYWYRKKSGSTNEESISKGGRYVETVNSGSKSFSLRINDLTVEDSGTYRCKVSMLLSSILRGCNYRKHDVYGDGTAVTVNA
notes: as for B1
For B27, the A450 came out at 0.114 A450 in the test with recombinant human TfR-1 and 0.077 A450 with recombinant mouse TfR-1.

B28: Clone 8.21 (VNAR)
VNAR: ARVDQTPQTITKETGESLTINCVLRDSNCALPSTYWYRKKSGSTNEESISKGGRYVETVNSGSKSFSLRINDLTVEDSGTYRCKVIAHLSSFRDGCNYRKHDVYGDGTAVTVNA
notes: as for B1
Consider B28, for which the A450 with recombinant human TfR-1 is 0.058 A450; in the test with recombinant mouse TfR-1 it was 0.086 A450.

B29: Clone 8.19 (VNAR)
VNAR: ARVDQTPQTITKETGESLTINCVLRDSNCALPSTYWYRKKSGSTNEESISKGGRYVETVNSGSKSFSLRINDLTVEDSGTYRCKVQSQLSIVLRGCNYRKHDVYGDGTAVTVNA
notes: as for B1
Take B29: the results for the A450 with recombinant human TfR-1 and with recombinant mouse TfR-1 were 0.078 A450 and 0.088 A450, respectively.
